Reference: patent publication US20240124586A1 (WUXI BIOLOGICS IRELAND, published 2024)
Substitutions are numbered along the chain they refer to.

How the values were obtained:
[1] = target: CTLA-4 (competition assays of Example 15) (UniProt P16410 36-161, limits assumed); experiment: FACS competition: antibody titrated against CD80 binding to CTLA-4
[2] = target: T1, human CTLA-4 on engineered 293F cells (W316-293F.hPro1.FL) (human, UniProt P16410 36-223); experiment: FACS on human CTLA-4 engineered cells
T1 construct: whole, on cells; also called human CTLA-4 engineered cells; CTLA-4+ cells
T1 sequence (P16410 36-223, change not shown): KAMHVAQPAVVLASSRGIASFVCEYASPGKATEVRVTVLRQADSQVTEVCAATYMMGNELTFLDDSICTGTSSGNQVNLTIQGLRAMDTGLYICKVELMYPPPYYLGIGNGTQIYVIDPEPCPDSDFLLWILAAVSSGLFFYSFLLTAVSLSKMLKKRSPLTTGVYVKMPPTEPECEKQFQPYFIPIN
Procedure: (§1) 3.16-fold titrated Abs with 1% BSA DPBS from 200 nM to 0.002 nM were added to the cells. Plates were incubated at 4° C. for 1 hour. After wash, […] 1:150 diluted PE-labeled goat anti-human antibody (Jackson 109-115-098) was added to each well and the plates were incubated at 4° C. for 1 hour. The binding of the antibodies onto the cells was tested by flow cytometry and the mean fluorescence intensity (MFI) was analyzed by FlowJo.

[3] = target: T2, human PD-1 ECD mouse Fc fusion (W305-hPro1.ECD.mFc) (human, UniProt Q15116 25-170); experiment: dual-binding ELISA: human PD-1 ECD coated, antibody titrated, bound antibody detected with biotinylated human CTLA-4 ECD and streptavidin-HRP
T2 construct: extracellular domain; In-house protein; also called hPD-1-ECD; human PD-1 coated on the plate
T2 sequence (Q15116 25-170): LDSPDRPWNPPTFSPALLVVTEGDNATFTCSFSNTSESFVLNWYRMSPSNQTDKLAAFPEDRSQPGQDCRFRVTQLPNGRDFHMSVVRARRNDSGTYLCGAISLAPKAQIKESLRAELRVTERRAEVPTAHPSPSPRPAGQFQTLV
Procedure: In order to test whether the bispecific antibodies could bind to both hPD-1 and hCTLA-4, an ELISA assay was developed as below. A 96-well ELISA plate (Nunc MaxiSorp, ThermoFisher) was coated overnight at 4° C. with 0.5 μg/ml antigen-1 (hPD-1-ECD, W305-hPro1.ECD.mFc) in carbonate-bicarbonate buffer. After a 1 hour blocking step with 2% (w/v) bovine serum albumin (Pierce) dissolved in PBS, serial dilutions of the different PD-1×CTLA-4 bispecific antibodies in PBS containing 2% BSA PBS were incubated on the plates for 1 hour at room temperature. Following the incubation, plates were washed three times with 300 μL per well of PBS containing 0.5% (v/v) Tween 20. […] After washing the plates three times, Streptavidin-HRP (Lifetechnologies, #SNN1004) (1:20000 diluted) was added and incubated on the plates for 1 hour at room temperature. After washing six times with […] per well of PBS containing 0.5% (v/v) Tween 20, 100 μL tetramethylbenzidine (TMB) substrate was added for the detection per well. The reaction was stopped after approximately 5 minutes through the addition of […] per well of 2 M HCl. The absorbance of the wells was measured at 450 nm with a multiwall plate reader (SpectraMax® M5e).

[4] = target: T1, human CTLA-4 on engineered 293F cells …; experiment: FACS on human CTLA-4 engineered cells, against benchmark BMK1
Procedure: as §1

[5] = target: T3, human PD-1 on engineered CHO-S cells (W305-CHO-S.hPro1.C6) (human, UniProt Q15116 25-288); experiment: FACS on human PD-1 engineered cells
T3 construct: whole, on cells; also called human PD-1 engineered cells; PD-1+ cells
T3 sequence (Q15116 25-288, change not shown): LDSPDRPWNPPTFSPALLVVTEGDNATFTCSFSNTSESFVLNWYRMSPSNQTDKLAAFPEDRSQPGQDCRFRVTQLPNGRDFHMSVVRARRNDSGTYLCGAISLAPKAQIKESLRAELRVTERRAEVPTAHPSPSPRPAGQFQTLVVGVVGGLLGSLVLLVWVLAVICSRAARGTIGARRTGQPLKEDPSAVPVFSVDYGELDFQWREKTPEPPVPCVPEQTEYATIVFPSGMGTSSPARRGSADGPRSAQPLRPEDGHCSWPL
Procedure: as §1, with “Engineered human PD-1 expressing cells W305-CHO-S.hPro1.C6 were seeded at 1×10⁵ cells/well in U-bottom 96-well plates (COSTAR 3799). Antibodies with 3.16-fold” for “3.16-fold”, “titration in” for “titrated Abs with”, “The plates” for “Plates”, “1:125” for “1:150”

[6] = target: T3, human PD-1 on engineered CHO-S cells …; experiment: FACS competition: antibody titrated against human PD-L1 binding to PD-1; falling curve, half-maximal value labelled EC50 on the sheet
Procedure: In order to test whether the bispecific antibodies could block hPD-L1 binding to hPD-1 protein, a competitive FACS was conducted. […] Plates were incubated at 4° C. for 1 hour. After wash, the binding of W315-hPro1.ECD.mFc to cell expressive human PD-1 was detected by FITC-labeled goat anti-mouse antibody (abcam 98716 1:125). The competition binding of antibodies to the cells was tested by flow cytometry and the mean fluorescence intensity (MFI) was analyzed by FlowJo.

[7] = target: T1, human CTLA-4 on engineered 293F cells …; experiment: FACS binding to human CTLA-4 engineered cells
Procedure: as §1

[8] = target: T3, human PD-1 on engineered CHO-S cells …; experiment: ELISA binding to human PD-1 (legend says 'engineered cells'; the form of the antigen in the ELISA is not described)
[9] = target: T3, human PD-1 on engineered CHO-S cells …; experiment: FACS binding to human PD-1 engineered cells
Procedure: as §1, with “Engineered human PD-1 expressing cells W305-CHO-S.hPro1.C6 were seeded at 1×10⁵ cells/well in U-bottom 96-well plates (COSTAR 3799). Antibodies with 3.16-fold” for “3.16-fold”, “titration in” for “titrated Abs with”, “The plates” for “Plates”, “1:125” for “1:150”

[10] = target: T1, human CTLA-4 on engineered 293F cells …; experiment: ELISA binding to human CTLA-4 (legend says 'engineered cells'; the form of the antigen in the ELISA is not described)
[11] = target: T4, FcγRIIa (H167) (UniProt P12318 36-218, limits assumed); experiment: SPR (Biacore), receptor captured on anti-his chip, steady state model
T4 sequence (looked up): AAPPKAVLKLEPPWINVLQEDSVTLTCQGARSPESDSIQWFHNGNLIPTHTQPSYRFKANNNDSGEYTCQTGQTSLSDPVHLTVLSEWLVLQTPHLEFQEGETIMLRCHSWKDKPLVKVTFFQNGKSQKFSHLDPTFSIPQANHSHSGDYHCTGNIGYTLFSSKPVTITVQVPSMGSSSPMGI
Procedure: (§2) Antibody binding affinity to FcγRs was detected using Biacore T200 (or Biacore 8K). Each receptor was captured on an anti-his antibody immobilized CM5 sensor chip (GE). Antibodies at different concentrations were injected over the sensor chip at a flow rate of 30 uL/min for an association phase of 60 s, followed by 60 s dissociation. The chip was then regenerated by 10 mM glycine (pH 1.5) after each binding cycle.
(§3) The sensorgrams of blank surface and buffer channel were subtracted from the test sensorgrams. The experimental data was fitted by 1:1 model using Langmiur analysis (for FcγRI) or steady state model (for other receptors). Molecular weight of 150 KDa was used to calculate the molar concentration of antibodies.

[12] = target: FcγRIIIb (UniProt O75015 17-200, limits assumed); experiment: as above
Sequence of FcγRIIIb (O75015 17-200 limits assumed): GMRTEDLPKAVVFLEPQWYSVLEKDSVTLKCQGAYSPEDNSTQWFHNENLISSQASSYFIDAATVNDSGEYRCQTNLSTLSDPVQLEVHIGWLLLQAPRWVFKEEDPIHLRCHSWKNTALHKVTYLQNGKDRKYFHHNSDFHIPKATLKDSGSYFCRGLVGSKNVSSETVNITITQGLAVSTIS
Procedure: as §2, §3

[13] = target: FcγRIIIa (F176) (UniProt P08637 17-208); experiment: as above
Sequence of FcγRIIIa (F176) (P08637 17-208 limits assumed): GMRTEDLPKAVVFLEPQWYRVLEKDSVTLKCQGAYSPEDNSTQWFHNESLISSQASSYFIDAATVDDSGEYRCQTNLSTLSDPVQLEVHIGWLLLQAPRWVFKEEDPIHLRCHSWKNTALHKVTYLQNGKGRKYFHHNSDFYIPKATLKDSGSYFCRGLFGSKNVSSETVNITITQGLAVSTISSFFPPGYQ
Procedure: as §2, §3

[14] = target: FcγRIIIa (V176) (UniProt P08637 17-208); experiment: as above
Sequence of FcγRIIIa (V176) (P08637 17-208 F176V limits assumed): as the sequence (P08637 17-208 limits assumed) above, with F160V counted along it
Procedure: as §2, §3

[15] = target: T5, FcγRIIa (R167) (UniProt P12318 36-218, limits assumed); experiment: as above
T5 sequence (looked up): T4 sequence (looked up) with H132R
Procedure: as §2, §3

[16] = target: T6, FcγRIIb (UniProt P31994 46-217, limits assumed); experiment: as above
T6 sequence (looked up): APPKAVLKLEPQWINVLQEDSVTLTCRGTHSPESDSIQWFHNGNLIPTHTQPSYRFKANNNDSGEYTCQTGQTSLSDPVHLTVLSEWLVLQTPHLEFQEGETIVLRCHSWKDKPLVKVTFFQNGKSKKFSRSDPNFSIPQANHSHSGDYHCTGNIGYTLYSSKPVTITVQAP
Procedure: as §2, §3

[17] = target: T7, FcγRI (UniProt P12314 16-288, limits assumed); experiment: SPR (Biacore), receptor captured on anti-his chip, 1:1 model
T7 construct: His-tagged by the capture method
T7 sequence (P12314 16-288 limits assumed): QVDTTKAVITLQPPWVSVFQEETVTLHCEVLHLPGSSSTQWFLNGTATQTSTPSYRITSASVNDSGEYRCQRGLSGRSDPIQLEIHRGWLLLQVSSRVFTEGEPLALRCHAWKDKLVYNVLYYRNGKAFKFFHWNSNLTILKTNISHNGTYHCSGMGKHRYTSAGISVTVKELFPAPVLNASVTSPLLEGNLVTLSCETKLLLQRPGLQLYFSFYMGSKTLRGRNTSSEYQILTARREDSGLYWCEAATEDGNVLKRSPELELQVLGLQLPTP
Procedure: as §2, §3

Sequence of CTLA-4 (competition assays of Example 15) (P16410 36-161 limits assumed): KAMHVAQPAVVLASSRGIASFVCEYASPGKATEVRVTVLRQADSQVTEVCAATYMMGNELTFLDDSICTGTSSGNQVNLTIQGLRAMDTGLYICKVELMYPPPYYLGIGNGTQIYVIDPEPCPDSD

B1: U6T5.G25.IgG4, bispecific anti-PD-1 x CTLA-4 (as listed in Example 15) (bispecific antibody)
heavy: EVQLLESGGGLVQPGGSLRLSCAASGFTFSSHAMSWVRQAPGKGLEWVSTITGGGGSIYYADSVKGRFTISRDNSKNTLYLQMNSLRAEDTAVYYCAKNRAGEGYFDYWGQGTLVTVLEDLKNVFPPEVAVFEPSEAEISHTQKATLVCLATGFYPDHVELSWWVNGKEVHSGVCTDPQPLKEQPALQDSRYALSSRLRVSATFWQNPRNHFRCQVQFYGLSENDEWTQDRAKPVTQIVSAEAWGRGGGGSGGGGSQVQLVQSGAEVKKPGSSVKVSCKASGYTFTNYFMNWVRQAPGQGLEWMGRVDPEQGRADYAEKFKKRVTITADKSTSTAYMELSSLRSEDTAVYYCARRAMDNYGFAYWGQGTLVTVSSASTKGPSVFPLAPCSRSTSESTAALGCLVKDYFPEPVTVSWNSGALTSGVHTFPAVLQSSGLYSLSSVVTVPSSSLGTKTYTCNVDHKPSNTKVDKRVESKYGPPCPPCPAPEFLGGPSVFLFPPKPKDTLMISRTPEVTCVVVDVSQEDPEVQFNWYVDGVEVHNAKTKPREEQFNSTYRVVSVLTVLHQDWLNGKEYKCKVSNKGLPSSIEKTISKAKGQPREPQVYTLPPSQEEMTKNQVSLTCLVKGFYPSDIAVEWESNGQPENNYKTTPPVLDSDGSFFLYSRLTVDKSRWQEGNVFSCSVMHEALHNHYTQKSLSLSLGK
light 1: SYELTQPLSVSVALGQTARITCGGDNIGNKDVHWYQQKPGQAPVLVIYRDSNRPSGIPEGFSGSNSGNTATLTISRAQAGDEADYYCQVWDSIWVFGGGTKLTVLPDIQNPDPAVYQLRDSKSSDKSVCLFTDFDSQTQVSQSKDSDVYITDKCVLDMRSMDFKSNSAVAWSQKSDFACANAFQNSIIPEDTFFPSPESS
light 2: EIVLTQSPDFQSVTPKEKVTITCSANSALSYMYWYQQKPDQSPKLWVHGTSNLASGVPSRFSGSGSGTDFTLTINSLEAEDAATYYCHHWSNTQWTFGGGTKVEIKRTVAAPSVFIFPPSDEQLKSGTASVVCLLNNFYPREAKVQWKVDNALQSGNSQESVTEQDSKDSTYSLSSTLTLSKADYEKHKVYACEVTHQGLSSPVTKSFNRGEC
notes: kept apart
For B1, which IC50 [1] is on record?
The IC50 was 0.758 nM.

What about the EC50 [2] of the same binder?
The EC50 was 7.55 nM.

And the EC50 [3]?
Its EC50 is 0.071 nM.

And the “fold improvement of EC50 against the benchmark antibody” value [4]?
Its value is 1.6 fold.

And the EC50 [5]?
The EC50 was 1.32 nM.

What about the IC50 [6] of the same binder?
Its IC50 is 1.92 nM.

B2: U6T4.G26.IgG4, bispecific anti-PD-1 x CTLA-4 (bispecific antibody)
chain: EVQLLESGGGLVQPGGSLRLSCAASGFTFSSHAMSWVRQAPGKGLEWVSTITGGGGSIYYADSVKGRFTISRDNSKNTLYLQMNSLRAEDTAVYYCAKNRAGEGYFDYWGQGTLVTVLEDLKNVFPPEVAVFEPSEAEISHTQKATLVCLATGFYPDHVELSWWVNGKEVHSGVCTDPQPLKEQPALQDSRYALSSRLRVSATFWQNPRNHFRCQVQFYGLSENDEWTQDRAKPVTQIVSAEAWGRGGGGSGGGGSDIVMTQTPLSLSVTPGQPASISCRSSQSLLNSDGNTYLYWYLQKPGQSPQLLIYLVSKLGSGVPNRFSGSGSGTDFTLKISRVEAEDVGVYYCVQGTHDPWTFGGGTKVEIKRTVAAPSVFIFPPSDEQLKSGTASVVCLLNNFYPREAKVQWKVDNALQSGNSQESVTEQDSKDSTYSLSSTLTLSKADYEKHKVYACEVTHQGLSSPVTKSFNRGEC
light: B1 light 1
heavy: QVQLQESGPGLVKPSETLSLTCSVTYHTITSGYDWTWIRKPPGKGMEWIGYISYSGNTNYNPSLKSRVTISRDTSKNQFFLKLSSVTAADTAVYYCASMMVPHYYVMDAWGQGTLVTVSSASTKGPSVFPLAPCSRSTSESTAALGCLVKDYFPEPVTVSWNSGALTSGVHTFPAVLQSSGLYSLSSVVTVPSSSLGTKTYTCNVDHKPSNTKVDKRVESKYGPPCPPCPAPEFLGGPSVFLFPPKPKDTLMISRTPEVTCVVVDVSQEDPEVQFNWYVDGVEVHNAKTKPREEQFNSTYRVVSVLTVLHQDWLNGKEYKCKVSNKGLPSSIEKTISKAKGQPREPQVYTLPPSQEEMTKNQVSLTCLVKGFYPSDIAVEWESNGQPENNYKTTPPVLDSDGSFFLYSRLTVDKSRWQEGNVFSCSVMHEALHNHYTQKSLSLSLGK
notes: Light-heavy crossed chimeric Fab; first chain is U6-HC fused to T4-LC; also called U6T4 antibody pair in G26 format
What does the source list for B2?
EC50 [7]: 59.8 nM; EC50 [8]: 0.102 nM; EC50 [9]: 1.84 nM; EC50 [10]: 0.177 nM

B3: T3U4.E17-2.(2).uIgG1 (E17-Design_2-QQQQ in wild type IgG1 with knobs-into-holes) (bispecific antibody)
heavy 1: not shown
light 1: DIVMTQSPDSLAVSLGERATINCKSSQSLLNSRTRKNYLAWYQQKPGQPPKLLIYWASTRQSGVPDRFSGSGSGTDFTLTISSLQAEDVAVYYCTQSHTLRTFGGGTKVEIKPDIQNPDPAVYQLRDSKSSDKSVCLFTDFDSQTQVSQSKDSDVYITDKCVLDMRSMDFKSNSAVAWSQKSDFACANAFQNSIIPEDTFFPSPESS
heavy 2: QMQLVQSGPEVKKPGTSVKVSCKASGYAFTSYNMYWVRQARGQRLEWIGYIDPYNGDTTYNQKFKGRVTITRDMSTSTAYMELSSLRSEDTAVYYCLTTAYAMDYWGQGTLVTVSSASTKGPSVFPLAPSSKSTSGGTAALGCLVKDYFPEPVTVSWNSGALTSGVHTFPAVLQSSGLYSLSSVVTVPSSSLGTQTYICNVNHKPSNTKVDKRVEPKSCDKTHTCPPCPAPELLGGPSVFLFPPKPKDTLMISRTPEVTCVVVDVSHEDPEVKFNWYVDGVEVHNAKTKPREEQYNSTYRVVSVLTVLHQDWLNGKEYKCKVSNKALPAPIEKTISKAKGQPREPQVCTLPPSREEMTKNQVSLSCAVKGFYPSDIAVEWESNGQPENNYKTTPPVLDSDGSFFLVSKLTVDKSRWQQGNVFSCSVMHEALHNHYTQKSLSLSPGK
light 2: DIQLTQSPSFLSASVGDRVTITCSASSTVNYMHWYQQKPGKAPKLLIYSTSNLASGVPSRFSGSGSGTEFTLTISSLQPEDFATYYCHQWSSYPYTFGQGTKLEIKRTVAAPSVFIFPPSDEQLKSGTASVVCLLNNFYPREAKVQWKVDNALQSGNSQESVTEQDSKDSTYSLSSTLTLSKADYEKHKVYACEVTHQGLSSPVTKSFNRGEC
notes: Order T3-HC / T3-LC / U4-HC / U4-LC; copies: 1 + 1 + 1 + 1
Which Kd [11] does the source give for B3 here?
The Kd was 3580 nM.

And the Kd [12]?
The Kd was 5160 nM.

What about the Kd [13] of the same binder?
Its Kd is 2080 nM.

What about the Kd [14] of the same binder?
The Kd was 644 nM.

And the Kd [15]?
The Kd was 4830 nM.

What about the Kd [16] of the same binder?
Its Kd is 8070 nM.

What about the Kd [17] of the same binder?
The Kd was 1.3 nM.
